In patent publication US9127130B2, “Polylysine dendrimer contrast agent” (STARPHARMA PTY LTD., priority 2006, dated 2015):
Where two headings read alike, the source gives them in different places.

Tests used:
[1] = cited from earlier work
[2] = system: human thrombi; assay: MRI of in vitro formed human plasma thrombi stained with Gadolinium loaded antibody-dendrimer constructs; type: cell-based
Description: Antibody-Dendrimer constructs (1.5 nmol) were loaded with Gadolinium by adding 64 nmol GdCl3.6H2O in PBS (0.1M, pH 7.4) overnight at room temperature under shaking. Excess Gadolinium was removed by dialysis (10,000 Dalton dialysis membrane, 12 h against 500 mL PBS with 3 buffer changes every 4 h).
To form human thrombi in vitro 1 mL platelet rich plasma (citrated blood spun down at 1000 rpm for 10 min) was mixed with 100 μL ADP, 88 μL Actin, 25 μL 1 M CaCl2 in a 1.5 mL reaction tube. Samples were incubated for 12 min at 37° C. in a water bath, incubated with antibody-dendrimer fusion product for another 30 min at 37° C. under continuous rotation. Thrombi were washed 3 times with 2 mL PBS for 10 min and fixed in formalin solution (1%) before imaging.
MRI of thrombi was performed on a 4.7 Tesla animal MRI scanner (Biospin Bruker). T1 weighted images with TE/TR 15 ms/350 ms were taken with a resolution of 512×512 μm (FOV 7 cm, average 4). 10 slices of 1 mm thickness were taken.

Row | Substance | stability of the conjugate ([1]; acidic conditions (pH 4-6)) | stability of the conjugate ([1]; pH 4) | stability of the conjugate ([1]; pH 5) | further results
1 | α-methoxy-ω-{N-2-(3-hydroxypropyl-cholesterylcarbarnate)-2-methyl-[1,3]dioxan-5-yl-amido}-polyethyleneglycol110 | not stable |  |  | 
2 | α-methoxy-ω-{N-(2-octadecyloxy-[1,3]dioxolan-4-yl)methylamido}-polyethyleneglycol110 |  | good stability | good stability | 
3 | α-methoxy-ω-{N-(2-methyl-s-octadecyloxy-[1,3]dioxan-5-yl)-amido}-polyethyleneglycol110 | not stable |  |  | 
4 | α-methoxy-ω-{N-(2-cholesteryloxy-[1,3]dioxolan-4-yl)methylamido}-polyethyleneglycol110 |  | moderately less stable | very stable | 
5 | MAL-(CH2)2CONH-PEG1100-CO-NEOEOEN[Su(NPN)2][Lys]8[Su-p-Bn-DTPA]16 [Example 7v] |  |  |  | MRI signal, control experiment ([2]; non reduced C-terminal cysteine antibody incubated with dendrimer): did not show any MRI signal; MRI signal, control experiment ([2]; non-modified antibody (no Traut's reagent) incubated with dendrimer): did not show any MRI signal
6 | [TFA.NH2(CH2)5NHSu]NEOEOEN[Su(NPN)2]Lys8[Su-p-Bn-DTPA]16 [Example 9iv] |  |  |  | MRI signal, control experiment ([2]; antibody incubated with dendrimer but without the Transglutaminase coupling enzyme): did not show any MRI signal
